Data published in patent US20260232827A1 (Zymeworks, published 2026).

How the values were obtained:
[1] = molecular target: T1, human sodium-dependent phosphate transporter 2B (NaPi2b) (human, UniProt O95436 1-690); assay: flow cytometry on H441 cells (endogenous NaPi2b), 24 h at 4 C, anti-human IgG Fc AF647, APC-A GeoMean
T1 construct: UniProt ID is given as 095436 [sic]; also called hNaPi2b; Hu NaPi2b
T1 sequence: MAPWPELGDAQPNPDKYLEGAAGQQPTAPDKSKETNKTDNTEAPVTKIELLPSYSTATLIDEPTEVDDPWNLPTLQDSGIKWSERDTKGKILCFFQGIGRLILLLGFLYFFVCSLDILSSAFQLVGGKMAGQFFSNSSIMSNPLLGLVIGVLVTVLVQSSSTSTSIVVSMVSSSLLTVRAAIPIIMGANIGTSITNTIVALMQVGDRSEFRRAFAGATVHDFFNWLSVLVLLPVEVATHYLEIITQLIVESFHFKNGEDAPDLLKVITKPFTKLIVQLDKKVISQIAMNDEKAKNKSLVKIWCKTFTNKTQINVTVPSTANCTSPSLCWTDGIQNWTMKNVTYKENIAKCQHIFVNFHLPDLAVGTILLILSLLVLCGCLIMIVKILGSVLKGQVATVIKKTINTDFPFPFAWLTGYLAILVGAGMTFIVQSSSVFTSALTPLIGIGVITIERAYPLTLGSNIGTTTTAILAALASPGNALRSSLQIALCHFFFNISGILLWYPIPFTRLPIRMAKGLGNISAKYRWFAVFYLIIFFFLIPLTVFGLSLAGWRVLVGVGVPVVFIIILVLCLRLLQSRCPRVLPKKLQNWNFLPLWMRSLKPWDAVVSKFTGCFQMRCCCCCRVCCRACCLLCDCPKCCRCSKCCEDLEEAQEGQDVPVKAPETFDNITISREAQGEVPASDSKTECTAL
Experimental: (§1) Cells were maintained under standard culture conditions (37° C./5% CO₂) until assay set-up. […] Cells were removed from culture vessels using Cell Dissociation Buffer (Invitrogen, Waltham, MA), seeded at 50,000 cells/well in conical-bottom 96-well plates, and treated with test antibody or antibody-drug conjugate for 24 hours at 4° C. to prevent internalization. […] Following incubation and washing, fluorescence was detected by flow cytometry on a BD LSRFortessa™ Cell Analyzer (BD Biosciences, Franklin Lake, NJ) with 1,000 minimum events collected per well.

[2] = molecular target: T1, human sodium-dependent phosphate …; assay: flow cytometry on HCC-78 cells (endogenous NaPi2b), 24 h at 4 C, anti-human IgG Fc AF647, APC-A GeoMean
Experimental: as §1

[3] = molecular target: T1, human sodium-dependent phosphate …; assay: cell-based or functional assay
cynomolgus monkey NaPi2b = molecular target: T2, cynomolgus monkey NaPi2b (cynomolgus monkey, UniProt O95436 1-690 (human entry)); assay: flow cytometry on HEK293-6e cells transiently transfected with cynomolgus NaPi2b, antibody 18-24 h at 4 C, anti-human IgG Fc AF647
T2 construct: also called Cyno NaPi2b; Cy NaPi2b
T2 chain: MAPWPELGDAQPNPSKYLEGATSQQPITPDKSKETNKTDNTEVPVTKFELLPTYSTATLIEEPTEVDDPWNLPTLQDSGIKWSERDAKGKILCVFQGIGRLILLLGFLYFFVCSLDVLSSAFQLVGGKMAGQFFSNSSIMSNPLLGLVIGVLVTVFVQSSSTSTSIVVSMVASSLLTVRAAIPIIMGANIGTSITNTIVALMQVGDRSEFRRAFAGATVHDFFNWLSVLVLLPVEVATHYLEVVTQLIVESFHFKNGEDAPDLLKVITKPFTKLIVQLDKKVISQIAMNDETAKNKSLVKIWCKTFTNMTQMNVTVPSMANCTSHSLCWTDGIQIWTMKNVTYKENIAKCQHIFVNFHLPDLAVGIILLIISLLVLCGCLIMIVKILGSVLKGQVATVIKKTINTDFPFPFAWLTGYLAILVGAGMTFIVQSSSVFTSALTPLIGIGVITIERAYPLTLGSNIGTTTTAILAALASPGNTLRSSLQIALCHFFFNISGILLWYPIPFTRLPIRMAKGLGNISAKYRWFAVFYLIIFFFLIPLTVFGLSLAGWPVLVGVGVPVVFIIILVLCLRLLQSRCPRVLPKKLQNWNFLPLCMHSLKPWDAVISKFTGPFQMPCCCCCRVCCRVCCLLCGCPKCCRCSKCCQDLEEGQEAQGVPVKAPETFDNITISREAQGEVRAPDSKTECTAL

[4] = molecular target: T3, Construct 7 (NaPi2b del 317-326) (human, UniProt O95436 1-690); assay: flow cytometry, HEK293-6e cells transfected with Construct 7
T3 construct: Deletion construct on HEK293-6e cells; also called CL_#29921
T3 sequence: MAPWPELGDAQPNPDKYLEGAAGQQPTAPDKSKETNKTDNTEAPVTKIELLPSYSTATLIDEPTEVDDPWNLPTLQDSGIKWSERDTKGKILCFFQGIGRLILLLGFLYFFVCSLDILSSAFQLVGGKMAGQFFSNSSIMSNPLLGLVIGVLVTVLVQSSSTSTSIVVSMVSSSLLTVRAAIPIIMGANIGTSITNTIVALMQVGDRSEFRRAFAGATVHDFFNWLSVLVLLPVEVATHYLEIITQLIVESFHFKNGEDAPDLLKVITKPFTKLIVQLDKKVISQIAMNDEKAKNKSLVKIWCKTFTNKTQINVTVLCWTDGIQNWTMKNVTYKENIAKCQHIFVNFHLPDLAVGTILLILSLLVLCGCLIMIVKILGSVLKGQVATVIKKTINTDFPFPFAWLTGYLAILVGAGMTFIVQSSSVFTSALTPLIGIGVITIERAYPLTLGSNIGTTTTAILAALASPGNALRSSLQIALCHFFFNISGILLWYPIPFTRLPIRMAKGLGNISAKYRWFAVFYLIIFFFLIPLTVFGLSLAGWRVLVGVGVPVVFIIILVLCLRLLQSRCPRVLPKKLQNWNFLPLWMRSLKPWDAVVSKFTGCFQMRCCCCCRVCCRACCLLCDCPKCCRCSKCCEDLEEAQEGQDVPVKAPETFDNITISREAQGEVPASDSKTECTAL
Experimental: Following transfection, cells were seeded at 50,000 cells/well in conical-bottom 96-well plates and treated with a serial dilution of test antibody for 24 hours at 4° C. to prevent internalization. Cells were treated with final concentrations of all humanized antibodies of 200, 20, or 2 nM. Cells were treated with final concentrations of the reference anti-NaPi2a rabbit antibody of 50, 5, or 0.5 nM. […] Following incubation and washing, fluorescence was detected by flow cytometry on a BD LSRFortessa™ Cell Analyzer (BD Biosciences, Franklin Lake, NJ) with 1,000 minimum events collected per well. […] Background-subtracted AF647 Mean Fluorescence Intensity (MFI) values were calculated by subtracting the average MFI of three technical replicates of unstained (no primary antibody) cells.

B1: v38591 (humanized anti-NaPi2b antibody, wild-type Fc) (antibody, human IgG1, kappa)
heavy: not shown
light: DVQMTQSPSSLSASVGDRVTITCRASQDVYSYLNWYQQKPGKAVKLLIYYTSRLQSGVPSRFSGSGSGTDYTLTISSLQPEDFATYYCQQYNIFPWTFGQGTKLEIKRTVAAPSVFIFPPSDEQLKSGTASVVCLLNNFYPREAKVQWKVDNALQSGNSQESVTEQDSKDSTYSLSSTLTLSKADYEKHKVYACEVTHQGLSSPVTKSFNRGEC
notes: also called v38591 Wild-type; H1L2
[1]
  EC50 (read off the curve): ~0.6 nM
[2]
  EC50 (read off the curve): ~3 nM

B2: v22277 (palivizumab, anti-RSV negative control, heterodimeric Fc) (antibody, human IgG1, kappa)
heavy 1: GQVTLRESGPALVKPTQTLTLTCTFSGFSLSTSGMSVGWIRQPPGKALEWLADIWWDDKKDYNPSLKSRLTISKDTSKNQVVLKVTNMDPADTATYYCARSMITNWYFDVWGAGTTVTVSSASTKGPSVFPLAPSSKSTSGGTAALGCLVKDYFPEPVTVSWNSGALTSGVHTFPAVLQSSGLYSLSSVVTVPSSSLGTQTYICNVNHKPSNTKVDKKVEPKSCDKTHTCPPCPAPELLGGPSVFLFPPKPKDTLMISRTPEVTCVVVDVSHEDPEVKFNWYVDGVEVHNAKTKPREEQYNSTYRVVSVLTVLHQDWLNGKEYKCKVSNKALPAPIEKTISKAKGQPREPQVYVYPPSRDELTKNQVSLTCLVKGFYPSDIAVEWESNGQPENNYKTTPPVLDSDGSFALVSKLTVDKSRWQQGNVFSCSVMHEALHNHYTQKSLSLSPG
heavy 2: not shown
light: GDIQMTQSPSTLSASVGDRVTITCKSQLSVGYMHWYQQKPGKAPKLLIYDTSKLASGVPSRFSGSGSGTEFTLTISSLQPDDFATYYCFQGSGYPFTFGGGTKLEIKRTVAAPSVFIFPPSDEQLKSGTASVVCLLNNFYPREAKVQWKVDNALQSGNSQESVTEQDSKDSTYSLSSTLTLSKADYEKHKVYACEVTHQGLSSPVTKSFNRGEC
notes: also called neg control
[3]
  Internalized Fluorescence Fold-Over Palivizumab, HCC-78, 5 hrs, 10 nM: 1 fold
  Internalized Fluorescence Fold-Over Palivizumab, HCC-78, 24 hrs, 10 nM: 1 fold
  Internalized Fluorescence Fold-Over Palivizumab, NCI-H441, 5 hrs, 10 nM: 1 fold
  Internalized Fluorescence Fold-Over Palivizumab, NCI-H441, 24 hrs, 10 nM: 1 fold
Cynomolgus monkey NaPi2b
  binding result: no binding (tested: 200 nM)

B3: v18993 (lifastuzumab), reference anti-NaPi2b antibody (antibody, human IgG1, kappa)
heavy 1: GEVQLVESGGGLVQPGGSLRLSCAASGFSFSDFAMSWVRQAPGKGLEWVATIGRVAFHTYYPDSMKGRFTISRDNSKNTLYLQMNSLRAEDTAVYYCARHRGFDVGHFDFWGQGTLVTVSSASTKGPSVFPLAPSSKSTSGGTAALGCLVKDYFPEPVTVSWNSGALTSGVHTFPAVLQSSGLYSLSSVVTVPSSSLGTQTYICNVNHKPSNTKVDKKVEPKSCDKTHTCPPCPAPELLGGPSVFLFPPKPKDTLMISRTPEVTCVVVDVSHEDPEVKFNWYVDGVEVHNAKTKPREEQYNSTYRVVSVLTVLHQDWLNGKEYKCKVSNKALPAPIEKTISKAKGQPREPQVYVYPPSRDELTKNQVSLTCLVKGFYPSDIAVEWESNGQPENNYKTTPPVLDSDGSFALVSKLTVDKSRWQQGNVFSCSVMHEALHNHYTQKSLSLSPG
heavy 2: not shown
light: GDIQMTQSPSSLSASVGDRVTITCRSSETLVHSSGNTYLEWYQQKPGKAPKLLIYRVSNRFSGVPSRFSGSGSGTDFTLTISSLQPEDFATYYCFQGSFNPLTFGQGTKVEIKRTVAAPSVFIFPPSDEQLKSGTASVVCLLNNFYPREAKVQWKVDNALQSGNSQESVTEQDSKDSTYSLSSTLTLSKADYEKHKVYACEVTHQGLSSPVTKSFNRGEC
[4]
  binding result: no binding (tested: 200 nM)
